Reference: publication PMC11394972 (International Journal of Molecular Sciences, 2024)

B1: MazF-mt3 (tag-removed form used for crystallization) (enzyme)
chain: GPELMVISRAEIYWADLGPPSGSQPAKRRPVLVIQSDPYNASRLATVIAAVITSNTALAAMPGNVFLPATTTRLPRDSVVNVTAIVTLNKTDLTDRVGEVPASLMHEVDRGLRRVLDL

Key:
crystal structure = target: the molecule itself; assay: crystal structure
[1] = target: B1; assay: crystal structure; details: both partners purified

| Binder | stoichiometry N (crystal structure) | stoichiometry N [1] |
| --- | --- | --- |
| B1 | 2 subunits in the oligomer | – |
| LTGQIDRALESIHGTDEAEALAVANAYRVLETMDDEW [MazE-mt3 (Leu46-Trp82) peptide] | – | 2 toxin chains per antitoxin chain |
